Assay results published in US20210275545A1 (YEDA RESEARCH AND DEVELOPMENT, published 2021).

T1: glucocorticoid receptor (GR), untagged (human, UniProt P04150 1-777)
T1 sequence (looked up): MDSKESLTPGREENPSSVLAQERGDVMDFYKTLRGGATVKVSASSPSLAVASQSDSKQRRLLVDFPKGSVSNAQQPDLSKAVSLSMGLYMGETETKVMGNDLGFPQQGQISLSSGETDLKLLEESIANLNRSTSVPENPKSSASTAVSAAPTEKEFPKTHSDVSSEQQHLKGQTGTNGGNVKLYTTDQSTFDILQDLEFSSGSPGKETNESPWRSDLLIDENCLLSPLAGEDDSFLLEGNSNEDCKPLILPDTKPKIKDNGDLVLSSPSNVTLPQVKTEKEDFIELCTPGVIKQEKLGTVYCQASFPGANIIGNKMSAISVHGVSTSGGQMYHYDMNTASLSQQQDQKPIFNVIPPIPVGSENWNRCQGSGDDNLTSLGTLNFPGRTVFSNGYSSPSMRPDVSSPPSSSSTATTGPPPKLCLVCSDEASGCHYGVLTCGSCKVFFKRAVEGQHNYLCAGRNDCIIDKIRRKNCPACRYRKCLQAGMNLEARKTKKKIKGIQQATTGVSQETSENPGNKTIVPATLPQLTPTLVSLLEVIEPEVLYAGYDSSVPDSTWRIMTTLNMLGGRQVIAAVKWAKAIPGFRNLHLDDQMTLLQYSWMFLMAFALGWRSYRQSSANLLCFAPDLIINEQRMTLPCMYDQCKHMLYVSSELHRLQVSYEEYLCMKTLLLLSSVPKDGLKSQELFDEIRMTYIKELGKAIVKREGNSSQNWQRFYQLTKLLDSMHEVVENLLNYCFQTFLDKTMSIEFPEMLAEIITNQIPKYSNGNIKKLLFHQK

T2: GR NTD+DBD-Gluc2 (NTD and DBD of GR fused to Gluc2) (human, UniProt P04150 1-486)
T2 construct: domain: NTD+DBD;range 94-169; not shown: Gaussia luciferase (Gluc), carboxyl-terminal fragment Gluc2, amino acids 94-169
T2 sequence (looked up): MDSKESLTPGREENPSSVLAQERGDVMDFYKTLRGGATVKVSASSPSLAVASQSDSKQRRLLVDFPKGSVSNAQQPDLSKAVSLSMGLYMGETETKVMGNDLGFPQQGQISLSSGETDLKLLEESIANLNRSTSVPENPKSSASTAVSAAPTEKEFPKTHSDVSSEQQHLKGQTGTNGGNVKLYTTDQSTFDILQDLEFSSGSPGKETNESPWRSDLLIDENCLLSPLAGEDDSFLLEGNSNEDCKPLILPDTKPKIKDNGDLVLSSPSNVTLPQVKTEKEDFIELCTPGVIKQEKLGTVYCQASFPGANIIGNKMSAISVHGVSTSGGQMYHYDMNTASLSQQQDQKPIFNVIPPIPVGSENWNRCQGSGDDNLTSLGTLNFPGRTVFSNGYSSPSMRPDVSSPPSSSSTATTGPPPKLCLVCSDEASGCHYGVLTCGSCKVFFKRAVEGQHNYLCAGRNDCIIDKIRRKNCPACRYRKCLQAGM

B1: FLI1, untagged (other, UniProt Q01543 1-452, looked up)
chain: MDGTIKEALSVVSDDQSLFDSAYGAAAHLPKADMTASGSPDYGQPHKINPLPPQQEWINQPVRVNVKREYDHMNGSRESPVDCSVSKCSKLVGGGESNPMNYNSYMDEKNGPPPPNMTTNERRVIVPADPTLWTQEHVRQWLEWAIKEYSLMEIDTSFFQNMDGKELCKMNKEDFLRATTLYNTEVLLSHLSYLRESSLLAYNTTSHTDQSSRLSVKEDPSYDSVRRGAWGNNMNSGLNKSPPLGGAQTISKNTEQRPQPDPYQILGPTSSRLANPGSGQIQLWQFLLELLSDSANASCITWEGTNGEFKMTDPDEVARRWGERKSKPNMNYDKLSRALRYYYDKNIMTKVHGKRYAYKFDFHGIAQALQPHPTESSMYKYPSDISYMPSYHAHQQKVNFVPPHPSSMPVTSSSFFGAASQYWTSPTGGIYPNPNVPRHPNTHVPSHLGSYY
notes: Stands for endogenous FLI1 (HEK-293T, A673) in co-immunoprecipitation and PLA, and for FLI1 from an expression vector in the reporter assays; also called endogenous FLI1
B2: GR-Gluc2 (full-length glucocorticoid receptor fused at its carboxyl terminus to Gluc2) (receptor, UniProt P04150 1-777, looked up)
chain: T1 sequence (looked up)
notes: domain: full length;range 94-169; Expressed in HEK-293/HEK-293T cells by transfection; also called Gluc2-GR; not shown: Gaussia luciferase (Gluc), carboxyl-terminal fragment Gluc2, amino acids 94-169
B3: GR NTD-Gluc2 (NTD of GR fused to Gluc2) (other, UniProt P04150 1-420, looked up, not shown: large carriers)
chain: MDSKESLTPGREENPSSVLAQERGDVMDFYKTLRGGATVKVSASSPSLAVASQSDSKQRRLLVDFPKGSVSNAQQPDLSKAVSLSMGLYMGETETKVMGNDLGFPQQGQISLSSGETDLKLLEESIANLNRSTSVPENPKSSASTAVSAAPTEKEFPKTHSDVSSEQQHLKGQTGTNGGNVKLYTTDQSTFDILQDLEFSSGSPGKETNESPWRSDLLIDENCLLSPLAGEDDSFLLEGNSNEDCKPLILPDTKPKIKDNGDLVLSSPSNVTLPQVKTEKEDFIELCTPGVIKQEKLGTVYCQASFPGANIIGNKMSAISVHGVSTSGGQMYHYDMNTASLSQQQDQKPIFNVIPPIPVGSENWNRCQGSGDDNLTSLGTLNFPGRTVFSNGYSSPSMRPDVSSPPSSSSTATTGPPPKL
notes: domain: NTD;range 94-169
B4: ERα-Gluc2 (estrogen receptor alpha fused to Gluc2) (receptor, UniProt P03372 1-595, looked up)
chain: MTMTLHTKASGMALLHQIQGNELEPLNRPQLKIPLERPLGEVYLDSSKPAVYNYPEGAAYEFNAAAAANAQVYGQTGLPYGPGSEAAAFGSNGLGGFPPLNSVSPSPLMLLHPPPQLSPFLQPHGQQVPYYLENEPSGYTVREAGPPAFYRPNSDNRRQGGRERLASTNDKGSMAMESAKETRYCAVCNDYASGYHYGVWSCEGCKAFFKRSIQGHNDYMCPATNQCTIDKNRRKSCQACRLRKCYEVGMMKGGIRKDRRGGRMLKHKRQRDDGEGRGEVGSAGDMRAANLWPSPLMIKRSKKNSLALSLTADQMVSALLDAEPPILYSEYDPTRPFSEASMMGLLTNLADRELVHMINWAKRVPGFVDLTLHDQVHLLECAWLEILMIGLVWRSMEHPGKLLFAPNLLLDRNQGKCVEGMVEIFDMLLATSSRFRMMNLQGEEFVCLKSIILLNSGVYTFLSSTLKSLEEKDHIHRVLDKITDTLIHLMAKAGLTLQQQHQRLAQLLLILSHIRHMSNKGMEHLYSMKCKNVVPLYDLLLEMLDAHRLHAPTSRGGASVEETDQSHLATAGSTSSHSLQKYYITGEAEGFPATV
notes: not shown: Gaussia luciferase (Gluc), carboxyl-terminal fragment Gluc2, amino acids 94-169

What was measured:
[1] = target: T1, glucocorticoid receptor (GR), untagged; test: cell-based or functional assay
[2] = target: T2, GR NTD+DBD-Gluc2 (NTD and DBD of GR …); test: co-immunoprecipitation with anti-Gluc antibody, immunoblot for endogenous FLI1, HEK-293 cells (FIG. 3D)
Procedure: (§1) HEK-293T cells (6×10³) were seeded in each well of 96-well plates. […] Cells were lysed after 24 hours and processed for co-immunoprecipitation assays, in which the Gluc protein was immunoprecipitated using a specific antibody. […] Blots are representative of three or more biological replicates. […] Similarly, the input of recombinant proteins is shown in the middle panels of C and D. Both molecular weights and relative quantities of individual Gluc fusion proteins are shown by means of immunoblotting with an antibody to Gluc. Individual fusion proteins are identified by numbers and their molecular weights are calculated below each panel.

[3] = target: T3, Gluc1-PU.1 (UniProt P17947-2 1-271); test: PCA (split Gaussia luciferase) in HEK-293 cells, DEX 1.0 µM 60 min (FIG. 1B)
T3 construct: not shown: Gaussia luciferase (Gluc), amino-terminal fragment Gluc1, amino acids 1-93
Text: EB, empty beads; C, solvent control. Images shown are representative of three biological replicates.
The resulting luminescence was normalized to the signal associated with cells treated with vehicle only.

[4] = target: B1; test: co-immunoprecipitation with anti-Gluc antibody, immunoblot for endogenous FLI1, HEK-293 cells (FIG. 3D)
Procedure: as §1

[5] = target: T3, Gluc1-PU.1; test: PCA in HEK-293T cells, estradiol 10 nM 60 min (FIG. 8C)
Procedure: (A) HEK-293T cells (6×10³) were seeded in 96-well plates. […] (B and C) HEK-293T cells (6×10³) were seeded in 96-well plates. […] Cells were then lysed and luminescence was determined.

Question: Which “GRE activity, luciferase reporter (FIG. 4D)” value [1] does the source give for B1 here?
Answer: 17 fold

Question: And the “GRE activity, luciferase reporter, endogenous GR with DEX (FIG. 4E)” value [1]?
Answer: ~2 fold

Question: Does B1 bind [2]?
Answer: no binding

Question: Does B2 bind [3]?
Answer: binds

Question: Does B3 bind [4]?
Answer: no binding

Question: Does B4 bind [5]?
Answer: no binding
